Bridge positions count the residues as written; N and C are the ends.

The target of the test is T1, Pyrococcus furiosus multidrug and toxic compound extrusion (PfMATE) transporter, wild type, His6-tagged, … (Pyrococcus furiosus, UniProt Q8U2X0 1-461).
T1 construct: PfMATE, MATE family transporter of Pyrococcus furiosus, wild type; Held in HEPES-buffered saline with 0.1% Cymal-6; also called His-tagged PfMATE; source: prepared according to literature [29]; not shown: His6, C-terminal, kept
T1 sequence (looked up): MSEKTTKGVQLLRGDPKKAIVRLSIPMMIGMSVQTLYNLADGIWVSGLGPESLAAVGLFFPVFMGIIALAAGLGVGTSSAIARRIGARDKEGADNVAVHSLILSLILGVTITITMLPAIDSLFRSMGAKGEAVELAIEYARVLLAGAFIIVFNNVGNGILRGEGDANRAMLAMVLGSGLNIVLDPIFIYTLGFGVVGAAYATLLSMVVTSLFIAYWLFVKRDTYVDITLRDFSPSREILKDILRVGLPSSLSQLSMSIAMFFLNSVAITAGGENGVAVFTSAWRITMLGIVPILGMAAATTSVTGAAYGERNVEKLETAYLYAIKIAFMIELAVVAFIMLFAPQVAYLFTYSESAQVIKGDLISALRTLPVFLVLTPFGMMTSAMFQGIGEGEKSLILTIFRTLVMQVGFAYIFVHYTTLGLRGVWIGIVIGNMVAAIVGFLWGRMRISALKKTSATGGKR
In words: mRNA display selection round with competitor; c-Round 6: 32 µM mRNA-free synthetic MaL6 in the buffer of the binding step, 37 °C, His6-PfMATE on magnetic beads, libraries from Round 5; recovery by real-time PCR. Particulars: both partners purified. On the technique in general: Real-time PCR tracks product formation cycle by cycle.

B1: MaL6, chemically synthesized thioether-macrocyclic peptide, not conjugated to mRNA, with an additional C-terminal glycine-carboxamide (peptide)
peptide: {CH2CO}-FTFRYSPSLYTWFLFPCG-NH2
modifications: thioether N-17 (inferred)
notes: AcF = N-chloroacetyl-L-phenylalanine; selected from the LF-library by RaPID; additional C-terminal glycine-carboxamide; also called chemically synthesized MaL6; mRNA-free MaL6; source: synthetic peptide, HPLC purified
As to B1, the binding result is reported as “binds”.

The values are drawn from PMC6270235, “A Macrocyclic Peptide that Serves as a Cocrystallization Ligand and Inhibits the Function of a MATE Family Transporter” (Molecules, 2013).
